Measured values from PMC11031135, “Chemo-enzymatic synthesis of tetrasaccharide linker peptides to study the divergent step in glycosaminoglycan biosynthesis” (Glycobiology, 2024).

B1: SUMO-β3GalT6 fusion protein (human β3GalT6 residues 53-329) (enzyme, UniProt Q96L58 53-329, looked up)
chain: ARAAAFLAVLVASAPRAAERRSVIRSTWLARRGAPGDVWARFAVGTAGLGAEERRALEREQARHGDLLLLPALRDAYENLTAKVLAMLAWLDEHVAFEFVLKADDDSFARLDALLAELRAREPARRRRLYWGFFSGRGRVKPGGRWREAAWQLCDYYLPYALGGGYVLSADLVHYLRLSRDYLRAWHSEDVSLGAWLAPVDVQREHDPRFDTEYRSRGCSNQYLVTHKQSLEDMLEKHATLAREGRLCKREVQLRLSYVYDWSAPPSQCCQRREGIP
notes: human beta-1,3-galactosyltransferase 6, UniProt Q96L58, residues 53-329, without the N-terminal transmembrane anchoring helix; The fusion was not cleaved; The printed monomer mass is 45 kDa; also called β3GalT6_53-329; source: FreeStyle 293-F cells, transfected, culture supernatant, purified (one-step IMAC, dialysis); not shown: SUMO, N-terminal, kept; 6xHistidine, N-terminal, kept
B2: human GlcAT-1, residues 76-335 (enzyme, UniProt O94766 76-335, looked up)
chain: TIYVVTPTYARLVQKAELVRLSQTLSLVPRLHWLLVEDAEGPTPLVSGLLAASGLLFTHLVVLTPKAQRLREGEPGWVHPRGVEQRNKALDWLRGRGGAVGGEKDPPPPGTQGVVYFADDDNTYSRELFEEMRWTRGVSVWPVGLVGGLRFEGPQVQDGRVVGFHTAWEPSRPFPVDMAGFAVALPLLLDKPNAQFDSTAPRGHLESSLLSHLVDPKDLEPRAANCTRVLVWHTRTEKPKMKQEEQLQRQGRGSDPAIEV
notes: human glucuronyltransferase GlcAT-1, UniProt O94766, residues 76-335, without the N-terminal transmembrane anchoring helix; Made from the pETM30 vector; The 6xHis-GST tag was removed by TEV protease; The printed monomer mass is 29 kDa; also called GlcAT-1_76-335; source: E. coli BL21(DE3)pLysS, purified (IMAC, TEV cleavage, flow-through of the second IMAC); not shown: 6xHistidine, N-terminal, …
B3: human β4GalT7, residues 81-327 (enzyme, UniProt Q9UBV7 81-327, looked up)
chain: PEHWEEDASWGPHRLAVLVPFRERFEELLVFVPHMRRFLSRKKIRHHIYVLNQVDHFRFNRAALINVGFLESSNSTDYIAMHDVDLLPLNEELDYGFPEAGPFHVASPELHPLYHYKTYVGGILLLSKQHYRLCNGMSNRFWGWGREDDEFYRRIKGAGLQLFRPSGITTGYKTFRHLHDPAWRKRDQKRIAAQKQEQFKVDREGGLNTVKYHVASRTALSVGGAPCTVLNIMLDCDKTATPWCTFS
notes: human beta-1,4-galactosyltransferase 7, UniProt Q9UBV7, residues 81-327, without the N-terminal transmembrane anchoring helix; Made from the pETM30 vector; The 6xHis-GST tag was removed by TEV protease; The printed monomer mass is 29 kDa; also called β4GalT7_81-327; source: E. coli Rosetta(DE3)pLysS, purified (IMAC, TEV cleavage, second IMAC, Superdex 200); not shown: 6xHistidine, N-terminal, …

Target: the molecule itself
Assay: mass photometry; Refeyn OneMP; final protein concentration between 50 nM and 125 nM; XylT1 and SUMO-β3GalT6 in Tris buffer A (50 mM Tris pH 7.4, 250 mM NaCl) with 5% glycerol, β4GalT7 in S200 buffer (25 mM MES pH 6.5, 200 mM NaCl, 5% glycerol), GlcAT-1 in HEPES buffer; duplicates

Stoichiometry N, 2:
B1, B2, B3
